Data from US20060067886A1, “Gastrin receptor-avid peptide conjugates” (priority 1997, published 2006).

What was measured:
[1] = in vivo; conditions: SCID, mouse, in vivo, iv, 4 uCi, total radioactivity; for tissue uptake at 0.5 h: 30 min; for tissue uptake at […]: 15 min
[2] = Biodistribution of radiometal-DOTA-BBN conjugates in CF1 normal mice; conditions: CF-1, mouse, in vivo, iv, total radioactivity; for tissue uptake dose at 1 h / dose excreted at 1 h: Avg % ID; for dose excreted at 1 h: Urine; for tissue uptake at 1 h: Avg % ID/gm
[3] = Blood, 1 hour, Blocking (excess BBN)
[4] = Kidney, 1 hour, Blocking (excess BBN)
[5] = L. Intestine, 1 hour, Blocking (excess BBN)
[6] = Liver, 1 hour, Blocking (excess BBN)
[7] = Lung, 1 hour, Blocking (excess BBN)
[8] = Muscle, 1 hour, Blocking (excess BBN)
[9] = Pancreas, 1 hour post-injection
[10] = Pancreas, 1 hour, Blocking (excess BBN)
[11] = S. Intestine, 1 hour, Blocking (excess BBN)
[12] = Spleen, 1 hour, Blocking (excess BBN)
[13] = Stomach, 1 hour, Blocking (excess BBN)

Work on `CSCC[C@H](NC(=O)[C@H](CC(C)C)NC(=O)[C@H](Cc1cnc[nH]1)NC(=O)CNC(=O)[C@@H](NC(=O)[C@H](C)NC(=O)[C@H](Cc1c[nH]c2ccccc12)NC(=O)[C@H](CCC(N)=O)NC(=O)CCCCCCCNC(=O)CN1CCN(CC(=O)O)CCN(CC(=O)O)CCN(CC(=O)O)CC1)C(C)C)C(N)=O` [111In-DOTA-8-Aoc-BBN[7-14]NH2, metal not drawn] yielded a tissue uptake at 0.5 h ([1]; Avg % ID/gm, Kidney) of 8.7 ± 2.8 %ID/g, a tissue uptake at 1 h ([1]; Avg % ID/gm, Kidney) of 5.66 ± 1.33 %ID/g and a tissue uptake at 4 h ([1]; Avg % ID/gm, Kidney) of 3.18 ± 0.43 %ID/g. The tissue uptake at 48 h ([1]; Avg % ID/gm, Kidney) was 0.48 ± 0.09 %ID/g, the tissue uptake at […] ([1]; Avg % ID/gm, L. Intestine) was 8.58 ± 3.04 %ID/g and the tissue uptake at 0.5 h ([1]; Avg % ID/gm, L. Intestine) was 4.33 ± 0.44 %ID/g. For the same compound, the tissue uptake at 1 h ([1]; Avg % ID/gm, L. Intestine) was 4.29 ± 2.55 %ID/g, the tissue uptake at 4 h ([1]; Avg % ID/gm, L. Intestine) was 10.3 ± 2.7 %ID/g and the tissue uptake at 24 h ([1]; Avg % ID/gm, L. Intestine, 24 hrs) was 2.35 ± 0.43 %ID/g. The tissue uptake at 48 h ([1]; Avg % ID/gm, L. Intestine) was 0.81 ± 0.2 %ID/g, the tissue uptake at 72 h ([1]; Avg % ID/gm, L. Intestine) was 0.45 ± 0.04 %ID/g and the tissue uptake at […] ([1]; Avg % ID/gm, Liver) was 2.03 ± 0.85 %ID/g. It also gave a tissue uptake at 0.5 h ([1]; Avg % ID/gm, Liver) of 0.7 ± 0.21 %ID/g, a tissue uptake at 72 h ([1]; Avg % ID/gm, Liver) of 0.07 ± 0.02 %ID/g and a tissue uptake at 0.5 h ([1]; Avg % ID/gm, Lung) of 0.94 ± 0.28 %ID/g. For the same compound, the tissue uptake at 48 h ([1]; Avg % ID/gm, Lung) was 0.06 ± 0.02 %ID/g, the tissue uptake at 72 h ([1]; Avg % ID/gm, Lung) was 0.02 ± 0.02 %ID/g and the tissue uptake at […] ([1]; Avg % ID/gm, Muscle) was 1.3 ± 0.6 %ID/g. It also gave a tissue uptake at 0.5 h ([1]; Avg % ID/gm, Muscle) of 0.32 ± 0.12 %ID/g, a tissue uptake at 1 h ([1]; Avg % ID/gm, Muscle) of 0.08 ± 0.07 %ID/g and a tissue uptake at […] ([1]; Avg % ID/gm, Pancreas) of 54.3 ± 9.7 %ID/g. The tissue uptake at 0.5 h ([1]; Avg % ID/gm, Pancreas) was 27.9 ± 3.44 %ID/g, the tissue uptake at 4 h ([1]; Avg % ID/gm, Pancreas) was 16.6 ± 4.43 %ID/g and the tissue uptake at 48 h ([1]; Avg % ID/gm, Pancreas) was 0.77 ± 0.44 %ID/g. It also gave a tissue uptake at 72 h ([1]; Avg % ID/gm, Pancreas) of 0.23 ± 0.08 %ID/g, a tissue uptake at 0.5 h ([1]; Avg % ID/gm, S. Intestine) of 5.16 ± 1.06 %ID/g and a tissue uptake at 1 h ([1]; Avg % ID/gm, S. Intestine) of 6.8 ± 1.81 %ID/g. The tissue uptake at 4 h ([1]; Avg % ID/gm, S. Intestine) was 2.24 ± 0.35 %ID/g, the tissue uptake at 48 h ([1]; Avg % ID/gm, S. Intestine) was 0.25 ± 0.06 %ID/g and the tissue uptake at 72 h ([1]; Avg % ID/gm, S. Intestine) was 0.12 ± 0.02 %ID/g. The tissue uptake at […] ([1]; Avg % ID/gm, Spleen) was 2.21 ± 0.8 %ID/g, the tissue uptake at 0.5 h ([1]; Avg % ID/gm, Spleen) was 0.83 ± 0.26 %ID/g and the tissue uptake at […] ([1]; Avg % ID/gm, Stomach) was 3.3 ± 1.99 %ID/g. It also gave a tissue uptake at 0.5 h ([1]; Avg % ID/gm, Stomach) of 1.82 ± 0.44 %ID/g, a tissue uptake at 1 h ([1]; Avg % ID/gm, Stomach) of 1.99 ± 0.24 %ID/g and a tissue uptake at 72 h ([1]; Avg % ID/gm, Stomach) of 0.05 ± 0.02 %ID/g. The tissue uptake at 0.5 h ([1]; Avg % ID/gm, Tumor) was 4.58 ± 0.53 %ID/g, the tissue uptake at 4 h ([1]; Avg % ID/gm, Tumor) was 1.78 ± 1.09 %ID/g and the tissue uptake at 48 h ([1]; Avg % ID/gm, Tumor) was 0.68 ± 0.24 %ID/g. For the same compound, the tissue uptake at 72 h ([1]; Avg % ID/gm, Tumor) was 0.34 ± 0.1 %ID/g, the dose excreted at 24 h ([1]; excretion through the hepatobiliary pathway, 24 hours p.i.) was 8.5% and the tissue uptake dose at 1 h [2, 3] was 0.98 ± 0.23 %ID. It also gave a tissue uptake dose at 1 h ([2]; Carcass, 1 hour, Blocking (excess BBN)) of 7.42 ± 1.35 %ID, a tissue uptake dose at 1 h ([2]; Heart, 1 hour post-injection) of 0.01 %ID and a tissue uptake dose at 1 h ([2]; Kidney, 1 hour post-injection) of 1.04 ± 0.12 %ID. It also gave a tissue uptake dose at 1 h [2, 4] of 0.92 ± 0.13 %ID, a tissue uptake dose at 1 h ([2]; L. Intestine, 1 hour post-injection) of 3.02 ± 0.33 %ID and a tissue uptake dose at 1 h [2, 5] of 0.15 ± 0.05 %ID. For the same compound, the tissue uptake dose at 1 h [2, 6] was 0.87 ± 0.1 %ID, the tissue uptake dose at 1 h [2, 7] was 0.17 ± 0.05 %ID and the tissue uptake dose at 1 h ([2]; Muscle, 1 hour post-injection) was 0.02 ± 0.01 %ID. For the same compound, the tissue uptake dose at 1 h [2, 8] was 0.02 ± 0.01 %ID, the tissue uptake dose at 1 h [2, 9] was 10.8 ± 0.78 %ID and the tissue uptake dose at 1 h [2, 10] was 0.19 ± 0.03 %ID. For the same compound, the tissue uptake dose at 1 h ([2]; S. Intestine, 1 hour post-injection) was 6.58 ± 1.1 %ID, the tissue uptake dose at 1 h [2, 11] was 1.65 ± 0.19 %ID and the tissue uptake dose at 1 h ([2]; Spleen, 1 hour post-injection) was 0.17 ± 0.04 %ID. For the same compound, the tissue uptake dose at 1 h [2, 12] was 0.02 ± 0.03 %ID, the tissue uptake dose at 1 h ([2]; Stomach, 1 hour post-injection) was 0.5 ± 0.06 %ID and the tissue uptake dose at 1 h [2, 13] was 0.16 ± 0.12 %ID. For the same compound, the dose excreted at 1 h ([2]; 1 hour post-injection) was 71.6 ± 1.82%, the dose excreted at 1 h ([2]; 1 hour, Blocking (excess BBN)) was 88.2 ± 1.79% and the tissue uptake at 1 h [2, 3] was 0.49 ± 0.15 %ID/g. It also gave a tissue uptake at 1 h ([2]; Heart, 1 hour, Blocking (excess BBN)) of 0.16 ± 0.06 %ID/g, a tissue uptake at 1 h [2, 4] of 2.19 ± 0.47 %ID/g and a tissue uptake at 1 h [2, 5] of 0.16 ± 0.06 %ID/g. It also gave a tissue uptake at 1 h [2, 6] of 0.54 ± 0.13 %ID/g, a tissue uptake at 1 h [2, 7] of 0.74 ± 0.17 %ID/g and a tissue uptake at 1 h ([2]; Muscle, 1 hour post-injection) of 0.12 ± 0.05 %ID/g. The tissue uptake at 1 h [2, 8] was 0.11 ± 0.07 %ID/g, the tissue uptake at 1 h [2, 9] was 27 ± 3.97 %ID/g and the tissue uptake at 1 h [2, 10] was 0.43 ± 0.1 %ID/g. For the same compound, the tissue uptake at 1 h [2, 11] was 0.95 ± 0.18 %ID/g, the tissue uptake at 1 h [2, 12] was 0.15 ± 0.16 %ID/g and the tissue uptake at 1 h [2, 13] was 0.32 ± 0.34 %ID/g.
